System: Escherichia coli TOP10
Assay: shrunken log2 fold change of peptide-encoding DNA abundance (4.5 h post-induction vs induction); higher = less antimicrobial activity (less host growth inhibition)
Details: time post-induction: 4.5 h; library: site-saturation at positions 5, 18, 19, 20
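Note: peptides expressed intracellularly from a pBAD plasmid library in pooled LB shake-flask culture, induced with 0.3% L-arabinose, DNA abundance read by NGS, three biological replicates, DESeq2 with apeglm shrinkage.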

Sequence | shrunken log2 fold change
RRIRIRPPRLPRPRPRPCPSPRP | -0.186
RRIRMRPPRLPRPRPRPYYEPRP | -0.28
RRIRPRPPRLPRPRPRPFWWPRP | 0.55
RRIRTRPPRLPRPRPRPHVIPRP | -0.192
RRIRDRPPRLPRPRPRPRREPRP | 0.281
RRIRARPPRLPRPRPRPFWFPRP | 0.0903
RRIRRRPPRLPRPRPRPDCKPRP | -0.176
RRIRLRPPRLPRPRPRPLWMPRP | -0.00586
RRIRMRPPRLPRPRPRPGADPRP | 2.39
RRIRNRPPRLPRPRPRPAEYPRP | 0.0714
RRIRRRPPRLPRPRPRPWRCPRP | 0.175
RRIRYRPPRLPRPRPRPSLGPRP | -0.297
RRIRARPPRLPRPRPRPWPAPRP | 0.17
RRIRVRPPRLPRPRPRPHLNPRP | -0.455
RRIRLRPPRLPRPRPRPSVVPRP | -0.196
RRIRRRPPRLPRPRPRPFGLPRP | -0.0905
RRIRLRPPRLPRPRPRPSHYPRP | -0.367
RRIRFRPPRLPRPRPRPPWMPRP | 0.355
RRIRDRPPRLPRPRPRPHCPPRP | -0.191
RRIRMRPPRLPRPRPRPTTTPRP | 0.276
RRIRKRPPRLPRPRPRPFSQPRP | -0.151
RRIRFRPPRLPRPRPRPEHFPRP | -0.213
RRIRRRPPRLPRPRPRPDSYPRP | -0.117
RRIRKRPPRLPRPRPRPLYEPRP | 0.0468
RRIRERPPRLPRPRPRPHQKPRP | -0.0694

Sequence | shrunken log2 fold change
RRIRSRPPRLPRPRPRPAHDPRP | 0.162
RRIRGRPPRLPRPRPRPFWLPRP | 0.299
RRIRGRPPRLPRPRPRPYNNPRP | -0.321
RRIRFRPPRLPRPRPRPYPRPRP | -0.6
RRIRQRPPRLPRPRPRPEHPPRP | 0.0713
RRIRDRPPRLPRPRPRPIFPPRP | 0.19
RRIRPRPPRLPRPRPRPLMHPRP | -0.0913
RRIRIRPPRLPRPRPRPWKPPRP | -0.093
RRIRTRPPRLPRPRPRPPFEPRP | 0.156
RRIRMRPPRLPRPRPRPPAPPRP | 2.01
RRIRFRPPRLPRPRPRPSNKPRP | -0.0849
RRIRARPPRLPRPRPRPGAKPRP | 0.623
RRIRPRPPRLPRPRPRPDRIPRP | -0.15
RRIRMRPPRLPRPRPRPNSRPRP | 0.169
RRIRWRPPRLPRPRPRPSQYPRP | -0.41
RRIRWRPPRLPRPRPRPLRLPRP | 0.804
RRIRFRPPRLPRPRPRPFESPRP | 0.0452
RRIRWRPPRLPRPRPRPCWMPRP | 0.0693
RRIRKRPPRLPRPRPRPTQKPRP | 0.0634
RRIRPRPPRLPRPRPRPVFKPRP | -0.189
RRIRDRPPRLPRPRPRPIRWPRP | 0.13
RRIRRRPPRLPRPRPRPLDIPRP | -0.121
RRIRIRPPRLPRPRPRPQYIPRP | -0.181
RRIRYRPPRLPRPRPRPHLNPRP | -1.15
RRIRARPPRLPRPRPRPKSKPRP | 0.257

Sequence | shrunken log2 fold change
RRIRERPPRLPRPRPRPCMRPRP | -0.0898
RRIRNRPPRLPRPRPRPRHIPRP | -0.0233
RRIRTRPPRLPRPRPRPCYCPRP | -0.76
RRIRARPPRLPRPRPRPMCFPRP | 0.18
RRIRKRPPRLPRPRPRPKPQPRP | 0.927
RRIRARPPRLPRPRPRPIKMPRP | 0.0129
RRIRQRPPRLPRPRPRPTEMPRP | -0.149
RRIRKRPPRLPRPRPRPVQFPRP | -0.0421
RRIRIRPPRLPRPRPRPKIGPRP | -0.0343
RRIRQRPPRLPRPRPRPYLGPRP | -0.0158
RRIRCRPPRLPRPRPRPRKVPRP | 0.196
RRIRSRPPRLPRPRPRPENMPRP | -0.459
RRIRRRPPRLPRPRPRPVLQPRP | 0.0941
RRIRWRPPRLPRPRPRPRRMPRP | 0.215
RRIRARPPRLPRPRPRPHPGPRP | 0.219
RRIRGRPPRLPRPRPRPFPYPRP | -0.334
RRIRNRPPRLPRPRPRPPMEPRP | -0.203
RRIRHRPPRLPRPRPRPRQDPRP | -0.189
RRIRHRPPRLPRPRPRPVKYPRP | -0.0563
RRIRGRPPRLPRPRPRPPKRPRP | 0.701
RRIRCRPPRLPRPRPRPAERPRP | -0.109
RRIRHRPPRLPRPRPRPYNVPRP | -0.0512
RRIRERPPRLPRPRPRPYQKPRP | -0.0207
RRIRQRPPRLPRPRPRPTPTPRP | 0.336
RRIRHRPPRLPRPRPRPPRRPRP | 0.452
